Results published in PMC12918760.

T1: NONO homodimer (human, UniProt Q15233 53-312)
T1 sequence: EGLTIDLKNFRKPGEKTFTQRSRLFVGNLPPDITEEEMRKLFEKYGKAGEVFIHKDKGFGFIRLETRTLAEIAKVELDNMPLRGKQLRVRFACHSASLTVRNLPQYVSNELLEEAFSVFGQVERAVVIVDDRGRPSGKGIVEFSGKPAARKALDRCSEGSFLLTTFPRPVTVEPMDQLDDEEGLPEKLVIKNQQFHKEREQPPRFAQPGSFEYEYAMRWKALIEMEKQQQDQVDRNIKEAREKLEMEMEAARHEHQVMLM

T2: NONO in NONO/SFPQ heterodimer;SFPQ in NONO/SFPQ heterodimer (human;human?, UniProt Q15233;P23246 53-312;276-535, |)
T2 sequence 1: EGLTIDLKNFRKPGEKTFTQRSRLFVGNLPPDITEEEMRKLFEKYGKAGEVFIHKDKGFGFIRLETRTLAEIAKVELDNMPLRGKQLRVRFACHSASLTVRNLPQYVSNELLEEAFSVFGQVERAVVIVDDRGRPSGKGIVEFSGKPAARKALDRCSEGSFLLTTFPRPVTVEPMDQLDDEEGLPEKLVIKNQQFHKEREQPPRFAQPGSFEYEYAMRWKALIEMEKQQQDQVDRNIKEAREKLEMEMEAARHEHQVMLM
T2 sequence 2: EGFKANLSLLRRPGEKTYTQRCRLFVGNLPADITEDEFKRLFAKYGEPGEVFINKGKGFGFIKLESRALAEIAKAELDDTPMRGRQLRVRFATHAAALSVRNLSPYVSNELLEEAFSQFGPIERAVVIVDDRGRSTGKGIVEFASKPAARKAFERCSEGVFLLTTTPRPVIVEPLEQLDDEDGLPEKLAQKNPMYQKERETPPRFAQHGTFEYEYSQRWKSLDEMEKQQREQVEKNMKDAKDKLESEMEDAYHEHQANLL


How the values were obtained:
NONO homodimer = target: T1, NONO homodimer; experiment: MST
[1] = target: T2, NONO in NONO/SFPQ heterodimer;SFPQ in …; experiment: MST

Row | Binder | binding result (NONO homodimer) | binding result [1]
1 | TGUGUGUGGCCGU (ssRNA, 5' residue printed as T) [GU-rich RNA oligo 1] | binds | binds
2 | TUGUGCCGUCU (ssRNA, 5' residue printed as T) [GU-rich RNA oligo 2] | binds | binds
